{"source": "paper PMC4183432", "about": "“Evidence of a Bacterial Receptor for Lysozyme: Binding of Lysozyme to the Anti-σ Factor RsiV Controls Activation of the ECF σ Factor σ^V” (PLoS Genetics, 2014)", "binders": {"B1": {"name": "human lysozyme (enzyme, UniProt P61626 19-148, looked up)", "chain": "KVFERCELARTLKRLGMDGYRGISLANWMCLAKWESGYNTRATNYNAGDRSTDYGIFQINSRYWCNDGKTPGAVNACHLSCSALLQDNIADAVACAKRVVRDPQGIRAWVAWRNRCQNRDVRQYVQGCGV", "notes": "Human lysozyme, a C-type lysozyme (58% identity to HEW lysozyme); also called HUM lysozyme"}}, "biological_target": "T1, GST-RsiV^59–285 (B. subtilis, UniProt O05403 59-285)", "T1 construct": "plasmid pKBW204 (pDEST15); source: E. coli BL21(DE3), purified (Glutathione HiCap Matrix); not shown: GST, N-terminal, kept", "T1 sequence (looked up)": "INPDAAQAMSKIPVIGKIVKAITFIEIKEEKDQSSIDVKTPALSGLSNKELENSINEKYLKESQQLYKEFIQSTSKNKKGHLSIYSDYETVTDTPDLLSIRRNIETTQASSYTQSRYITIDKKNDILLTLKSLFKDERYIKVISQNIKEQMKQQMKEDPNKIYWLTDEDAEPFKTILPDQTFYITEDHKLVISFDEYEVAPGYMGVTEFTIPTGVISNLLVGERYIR", "assay": "pull-down; 2 mg purified GST-RsiV^59–285 on a Glutathione HiCap Matrix column in PBS-EW; 2 mg of HEW lysozyme, human lysozyme or mutanolysin applied; washed with PBS-EW, eluted with TNGT; SDS-PAGE", "details": "both partners purified"}
{"binder": "B1", "values": [{"measurement": "binding result", "result": "binds"}]}
